Data published in the supplement of paper PMC12667976.

B1: library; numbered along this chain (parent)
chain: MATDAALRRLLRLHRTEIAVAVDSAFPLLHALADHDVVPEDKFQETLHLKEKEGCPQAFHALLSWLLTQDSTAILDFWRVLFKDYNLERYGRLQPILDSFPKDVDLSQPRKGRKPPAVPKALVPPPRLPTKRKASEEARAAAPAALTPRGTASPGSQLKAKPPKKPESSAEQQRLPLGNGIQTMSASVQRAVAMSSGDVPGARGAVEGILIQQVFESGGSKKCIQVGGEFYTPSKFEDSGSGKNKARSSSGPKPLVRAKGAQGAAPGGGEARLGQQGSVPAPLALPSDPQLHQKNEDECAVCRDGGELICCDGCPRAFHLACLSPPLREIPSGTWRCSSCLQATVQEVQPRAEEPRPQEPPVETPLPPGLRSAGEEVRGPPGEPLAGMDTTLVYKHLPAPPSAAPLPGLDSSALHPLLCVGPEGQQNLAPGARCGVCGDGTDVLRCTHCAAAFHWRCHFPAGTSRPGTGLRCRSCSGDVTPAPVEGVLAPSPARLAPGPAKDDTASHEPALHRDDLESLLSEHTFDGILQWAIQSMARPAAPFPS

Variants of: B1
Experiment: AIRE transcriptional activation functional score (insulin promoter-GFP; nonsense median 0, synonymous median 1) (normalised score); higher = higher AIRE activity (more reporter activation)
Details: with insulin promoter-GFP reporter in HEK293
Description: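 Deep mutational scan of full-length human AIRE (codon-optimized cDNA, DT-POPCode NNN libraries over three regions) integrated at a Bxb1 landing pad in HEK293 cells carrying an insulin core promoter-GFP reporter at a Flp-In site. Cells were sorted for the top 10% GFP about 14 days after transfection. Variant frequency log-ratios (select vs non-select, TileSeq) were rescaled so that the nonsense median is 0 and the synonymous median is 1, then averaged over biological replicates.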

AIRE transcriptional activation functional score of substitutions, site by site:
S107: V 1, Y 0.891, F 0.789, T 0.785, P 0.096, N 0.000996, D 0.707, Q 0.12, K 0.75, W 1.49, I 1.02, H 1.33, E 0.777, C 1.12, R 1.25, L 1.05, A 1.04, M 1.27, G 0.704
P124: A 0.614
Q108: F 0.53, W 0.796, S 0.618, D 2.03, K 0.479, A 0.176, Y 1.24, L 0.0593, H -0.231, R 0.951, M 2.4, I -0.272, N 0.625, V 0.8, E 1.66, G 0.482, C 0.53, T 1.35, P 0.669
R113: A 0.951, Q 1.18, C 1.3, N 1.68, F 1.12, P 0.537, E 0.975, L 0.951, I 1.46, G 0.801, M 0.565, T 0.935, D 0.648, K 1.18, H 1.08, S 1.02, Y 0.831, V 0.537, W 0.668
A117: E 1.03, G 1.22, K 0.457, C 1.1, N 0.792, T 1.16, S 0.692, M 0.838, H 1.22, F 1.04, R 0.501, Q 1.44, P 0.913, W 1.4, Y 1.76, D 0.179, V 0.34, L 1.13, I 0.777
G112: T 1.31, S 0.851, Q 1.37, I 1.08, W 1.45, C 0.924, E 1.23, H 0.912, D 1.13, Y 0.893, R 0.278, N 0.726, F 1.03, M 0.488, K 0.268, P 1.12, A 1.49, L 1.31, V 0.878
V123: H 1.19, F 1.33, T 0.905, E 0.862, R 0.872, N 1.03, S 0.751, K 1.26, P 0.742, I 1.17, D 1.11, L 1.28, Q 1.31, A 0.886, M 1.72, C 1.27, Y 1.43, G 1.3
K114: A -0.00452, Y 1.51, M 0.913, N 0.632, L 1.03, I 1.03, H 0.207, R 0.793, D 0.131, W 1.32, V 0.691, F 0.817, G 0.427, S 0.787, T 1.19, Q 0.342, E 1.46, P 0.1, C 1.06
L122: P 0.586, H 0.431, D 1.44, E 0.827, N 0.335, Q 0.272, K 0.401, G 1.29, F 1.32, V 0.859, I 0.612, A 0.747, M 1.1, S 1.44, T 0.686, R 0.83, W 0.871, C 1.17, Y 1.45
V118: E 1.08, N 0.783, C 1.25, Q 0.675, R 0.372, G 0.911, M 1.31, S 0.863, H 1.74, L 0.953, W 1.13, A 1.02, T 0.667, Y 1.42, P 1.47, D 0.403, K 0.143, F 1.01, I 1.01
L106: T 0.979, W 0.739, P -1.47, K 0.511, Q -0.722, S -1.04, G -0.428, Y 1.27, R 0.112, I -1.62, N 0.233, V 0.581, M 0.0877
A121: H 0.141, P 0.967, G 1.4, M 1.2, W 1.54, Y 1.59, I 0.906, N 1.1, Q 0.141, K 1.21, R 0.922, C 1.3, D 0.847, V 0.67, F 1.22, L 1.09, S 1.28, E 1.35, T 0.322
P109: K 0.0515, V 0.635, R 0.676, Q 0.797, N -1.94, E 0.161, M 2.55, A 0.959, I 0.666, G 0.279, T 1.54, Y 0.732, W 0.0143, F 1.16, S 1.1, H 1.28, L 0.821, C 0.656, D 0.988
K111: G 0.901, D -0.0433, I 1.36, A 1.84, T 0.947, H 0.607, R 0.805, W 0.591, N 1.36, C 1.44, E 0.792, F 0.696, M -0.763, V 1.37, Y 1.29, Q -0.0716, S 1.18, L 1.65
R110: L 1.44, D 2.5, K 1.25, I 1.21, G 1.34, A 1.41, Q 0.31, Y 1.61, N 0.62, S 1.01, F 0.927, V 1.21, E 1.09, P 0.621, C 0.426, W 1.5, T 0.97, M 0.295
P115: L 1.2, V 1.21, S 1.58, G 0.828, H 1.03, Y 0.917, D 0.0469, I 0.466, E 0.792, R 0.784, T 0.525, W 0.278, N 1.02, A 0.798, Q 1.01, C 0.977, M 0.979, F 1.5, K -0.166
P116: N 2.06, R 0.38, H 1.15, I 1.36, V 0.906, M 1.1, Q 1.41, E 0.895, W 1.13, G 0.577, C 1.36, Y 1.17, F 1.18, D 0.468, S 1.12, T 0.481, A 0.756, K 0.772, L 1.07
K120: T 1.79, H 0.932, M 1.31, S 1.21, G 1.12, E 0.943, Q 0.232, I 1.2, D 0.677, V 1.01, R 1.21, W 1.43, F 0.998, C 1.2, N 1.29, L 1.13, Y 1.34, P 1.21, A 0.814
P119: W 1.58, C 1.04, Y 1.63, I 1.52, M 0.545, E 1.37, A 1.03, D 0.86, V 0.878, R 0.495, F 1.39, Q 1.02, T 1.59, S 0.765, K 1.36, L 0.904, N 1.04, H 1.17, G 0.741
